Common to all, as to format: in vivo
Experiment [1] relates to transgenic rice (Zhonghua 11). The experiment in a line: Herbicide resistance of transgenic rice seedlings (T0) on medium containing tembotrione. To be noted: T0 transgenic seedlings overexpressing the mutant, differentiation medium. The text has this:
(§1) • 1. Construction of overexpression vector • 1) Primers: primers were designed according to the selected restriction sites and the nucleotide sequence of the gene itself to amplify the three-site mutant HPPD (H141R/G342D/D370N) (OsHPPD3M). The designed primers were synthesized by Beijing Qingke Biotechnology Co., Ltd.: HPPD-F, […] ATGCCTCCCACT CCCACCC, HPPD-R, […] GGC. • 2) PCR amplification: the gene of interest was amplified by using the synthesized primer and Q5 DNA polymerase (NEB, New England Biolabs, Boston, USA). The amplified product was assayed by agarose gel electrophoresis, and the product was recovered according to operational instructions of the TIANquick Midi Purification kit. After the completion of the recovery, the concentration of extracted DNA was determined by Nanodrop. • 3) Construction of a rice overexpression vector: the rice overexpression vector pCAMBIA1301-OsHPPD3M was constructed with the recovered HPPD fragments and plasmid pCAMBIA1301 digested by KpnI and HindIII by using the HB-in Fusions™ seamless cloning kit of HanBio Biotechnology Co., Ltd., (Shanghai), and then transformed into the competent E. coli DH5α to obtain a positive clone; the positive clone was transformed into Agrobacterium after sequencing and restriction endonuclease digestion. • 2. […]

Another experiment has as its system transgenic rice. As to the kind of experiment: Herbicide resistance of transgenic rice (T0, T1 generation) sprayed with shuangzuocaotong.
Excerpt: as §1

In experiment [2] the test system is Huaidao No. 5 rice seedlings. The experiment in a line: Gene-edited rice seedlings (base editing / homologous replacement of HPPD gene) on medium containing tembotrione. To be noted: medium containing 0.4 μM tembotrione. On the procedure:
The calli of Huaidao No. 5 (at least 3000 callis) were infected according to the aforesaid method for infecting rice callis with Agrobacterium. After being infected with Agrobacterium, the infected calli were transferred to a 50 mg/L hyg screening medium for screening culture. After three rounds (15 days×3) of screening, the blond calli with good growth state were picked out to differentiate in a differentiation medium, and 0.2 μM tembotrione was added during the differentiation process for screening. After for 3-4 weeks, about 1,500 seedlings with around 1 cm were obtained. As to the about 1,500 differentiated seedlings, the vast majority of which had been bleached, and only 4 seedlings remained normal green. The 4 seedlings were transplanted to a rooting medium containing 0.4 μM tembotrione and cultivated for 2 weeks, wherein two seedlings had been bleached, while the other two seedlings remained green (FIG. 14A). A small number of leaves were used to extract genomic DNA by CTAB method. PCR was carried out by using the primers oshppd54F: TTCCACCACGTCGAGCTC and Oshppd356R: […]. The amplified product was detected by 1% agarose electrophoresis and sequenced by Sanger sequencing method. […]

The values below come from patent US12428627B2, “Mutant p-hydroxyphenylpyruvate dioxygenase, and coding nucleic acid and use thereof” (Qingdao Kingagroot Chemical Compound Co., Ltd., priority 2018, dated 2025).

B1: H141R/G342D/D370N: three-site mutant rice HPPD (OsHPPD3M) (protein, listed as Oryza sativa)
chain: MPPTPTPTATTGAVSAAAAAGENAGFRLVGHRRFVRANPRSDRFQALAFHHVELWCADAASAAGRFAFALGAPLAARSDLSTGNSAHASLLLRSASVAFLFTAPYGGDHGVGADAATTASIPSFSPGAARRFAADHGLAVRAVALRVADAADAFRASVAAGARPAFQPADLGGGFGLAEVELYGDVVLRFVSHPDGADAPFLPGFEGVSNPGAVDYGLRRFDHVVGNVPELAPVAAYISGFTGFHEFAEFTAEDVGTAESGLNSVVLANNAETVLLPLNEPVHGTKRRSQIQTYLDHHGGPGVQHIALASDDVLGTLREMRARSAMGGFEFLAPPPPNYYDDVRRRAGDVLSEEQINECQELGVLVDRDNQGVLLQIFTKPVGDRPTFFLEMIQRIGCMEKDESGQEYQKGGCGGFGKGNFSELFKSIEEYEKSLEAKQAPTVQGS
modifications: The amino acid sequence of Wild-Type rice HPPD protein (OsHPPD _WT)
Consider B1, for which the “tembotrione concentration in culture medium tolerated (remains green)” value in experiment [1] amounted to 3 µM. In the experiment on transgenic rice (T0 plants expressing the mutant, spraying), the “shuangzuocaotong rate tolerated, T0 generation plants” value is recorded as 8-16 grams active ingredient per mu. Also, in the experiment on transgenic rice (T1 plants expressing the mutant, spraying), the “shuangzuocaotong rate tolerated, T1 generation plants” value is 32-64 grams active ingredient per mu. In addition, the “resistance multiple of transgenic rice to HPPD-inhibiting herbicide” value in the experiment on transgenic rice (overexpression, field rate of shuangzuocaotong 4 g a.i./mu) is “at least 4”. Also, the “state of successfully edited seedlings” value in experiment [2] is “remain green”.
